{"source": "patent US20190385705A1", "key": {"[1]": {"target": "intact ZIKV particles (ZIKV envelope protein) (Zika virus)", "assay": "direct ELISA on coated intact ZIKV particles (10-fold dilutions), antibody 1 ug/ml, anti-mouse IgG-HRP; LOD = blank + 3 SD"}, "[2]": {"target": "intact ZIKV particles (ZIKV envelope protein) (Zika virus)", "assay": "direct ELISA on coated intact ZIKV particles (10-fold dilutions), antibody 1 ug/ml, anti-mouse IgG-HRP; FPLR fit"}, "[3]": {"target": "intact ZIKV particles (ZIKV envelope protein) (Zika virus)", "assay": "direct ELISA on coated intact ZIKV particles (10-fold dilutions), biotinylated peptide 20 uM, streptavidin-HRP; FPLR fit"}, "[4]": {"target": "intact ZIKV particles (ZIKV envelope protein) (Zika virus)", "assay": "direct ELISA on coated intact ZIKV particles (10-fold dilutions), biotinylated peptide 20 uM, streptavidin-HRP; LOD = blank + 3 SD"}, "[5]": {"target": "intact ZIKV particles (ZIKV envelope protein) (Zika virus)", "assay": "direct ELISA on coated intact ZIKV particles, mono-arm peptide 20 uM in urine (1:1) or serum (1:10); data not shown"}, "[6]": {"target": "intact DENV-1 particles (Dengue virus serotype 1)", "assay": "direct ELISA, plates coated with 10^5 copies/mL of intact virus particles"}, "[7]": {"target": "intact DENV-2 particles (Dengue virus serotype 2)", "assay": "direct ELISA, plates coated with 10^5 copies/mL of intact virus particles"}, "[8]": {"target": "intact DENV-3 particles (Dengue virus serotype 3)", "assay": "direct ELISA, plates coated with 10^5 copies/mL of intact virus particles"}, "[9]": {"target": "intact ZIKV particles (ZIKV envelope protein) (Zika virus)", "assay": "direct ELISA on coated intact ZIKV particles (10-fold dilutions), biotinylated peptide 5 uM, streptavidin-HRP; LOD = blank + 3 SD"}, "[10]": {"target": "intact ZIKV particles (ZIKV envelope protein) (Zika virus)", "assay": "direct ELISA on coated intact ZIKV particles (10-fold dilutions), biotinylated peptide 5 uM, streptavidin-HRP; FPLR fit"}, "[11]": {"target": "intact ZIKV particles (ZIKV envelope protein) (Zika virus)", "assay": "direct ELISA on coated intact ZIKV particles (10-fold dilutions), biotinylated peptide 2 uM, streptavidin-HRP; LOD = blank + 3 SD"}, "[12]": {"target": "intact ZIKV particles (ZIKV envelope protein) (Zika virus)", "assay": "direct ELISA on coated intact ZIKV particles (10-fold dilutions), biotinylated peptide 2 uM, streptavidin-HRP; FPLR fit"}, "[13]": {"target": "intact ZIKV particles (ZIKV envelope protein) (Zika virus)", "assay": "direct ELISA on coated intact ZIKV particles (10-fold dilutions), biotinylated peptide 0.5 uM, streptavidin-HRP; LOD = blank + 3 SD"}, "[14]": {"target": "intact ZIKV particles (ZIKV envelope protein) (Zika virus)", "assay": "direct ELISA on coated intact ZIKV particles (10-fold dilutions), biotinylated peptide 0.5 uM, streptavidin-HRP; FPLR fit"}}}
{"molecule": "antibody 4G2 hybridoma mouse IgG2a", "values": [{"measurement": "LOD (log[ZIKV], copies/mL)", "setting": "[1]", "result": 5.8}, {"measurement": "FPLR C50 (log[ZIKV], copies/mL)", "setting": "[2]", "result": 6.2}, {"measurement": "FPLR minimum", "setting": "[2]", "result": "0.04 ΔA"}]}
{"molecule": "CLRGHA (maleimide-PEG2-biotin on the N-terminal cysteine)", "note": "[mono-arm peptide P2]", "values": [{"measurement": "FPLR C50 (log[ZIKV], copies/mL)", "setting": "[3]", "result": 6.2}, {"measurement": "FPLR minimum", "setting": "[3]", "result": "0.04 ΔA"}, {"measurement": "LOD (log[ZIKV], copies/mL)", "setting": "[4]", "result": 4.5}, {"measurement": "lowest ZIKV concentration detected in urine or serum", "setting": "[5]", "result": "1e+06", "unit": "copies/mL"}]}
{"molecule": "MDSPIKGPGCCGPGKRNATP (designed binder, maleimide-PEG2-biotin on the cysteines of the bridge (thioether))", "note": "[clamp peptide C7]", "values": [{"measurement": "signal decrease against the ZIKV signal", "setting": "[6]", "result": 70, "unit": "%"}, {"measurement": "signal decrease against the ZIKV signal", "setting": "[7]", "result": 70, "unit": "%"}, {"measurement": "signal decrease against the ZIKV signal", "setting": "[8]", "result": 70, "unit": "%"}, {"measurement": "LOD (log[ZIKV], copies/mL)", "setting": "[9]", "result": 3.7}, {"measurement": "FPLR C50 (log[ZIKV], copies/mL)", "setting": "[10]", "result": 5.8}, {"measurement": "FPLR minimum", "setting": "[10]", "result": "0.01 ΔA"}]}
{"molecule": "WPHTQGPGCCGPGSWPGQ (designed binder, maleimide-PEG2-biotin on the cysteines of the bridge (thioether))", "note": "[clamp peptide C1]", "values": [{"measurement": "LOD (log[ZIKV], copies/mL)", "setting": "[11]", "result": 4.8}, {"measurement": "FPLR C50 (log[ZIKV], copies/mL)", "setting": "[12]", "result": 6.3}, {"measurement": "FPLR minimum", "setting": "[12]", "result": "0.03 ΔA"}]}
{"molecule": "CKRNATP (maleimide-PEG2-biotin on the N-terminal cysteine)", "note": "[mono-arm peptide X1]", "values": [{"measurement": "FPLR C50 (log[ZIKV], copies/mL)", "setting": "[3]", "result": 6.1}, {"measurement": "FPLR minimum", "setting": "[3]", "result": "0.03 ΔA"}, {"measurement": "LOD (log[ZIKV], copies/mL)", "setting": "[4]", "result": 4.8}, {"measurement": "lowest ZIKV concentration detected in urine or serum", "setting": "[5]", "result": "1e+07", "unit": "copies/mL"}]}
{"molecule": "CKTDAYS (maleimide-PEG2-biotin on the N-terminal cysteine)", "note": "[mono-arm peptide X2]", "values": [{"measurement": "FPLR C50 (log[ZIKV], copies/mL)", "setting": "[3]", "result": 6.1}, {"measurement": "FPLR minimum", "setting": "[3]", "result": "0.01 ΔA"}, {"measurement": "LOD (log[ZIKV], copies/mL)", "setting": "[4]", "result": 5.8}]}
{"molecule": "AGRRPGPGCCGPGLRGHA (designed binder, maleimide-PEG2-biotin on the cysteines of the bridge (thioether))", "note": "[clamp peptide C6]", "values": [{"measurement": "signal decrease against the ZIKV signal", "setting": "[7]", "result": 45, "unit": "%"}, {"measurement": "signal decrease against the ZIKV signal", "setting": "[8]", "result": 55, "unit": "%"}, {"measurement": "LOD (log[ZIKV], copies/mL)", "setting": "[13]", "result": 3.5}, {"measurement": "FPLR C50 (log[ZIKV], copies/mL)", "setting": "[14]", "result": 5.2}, {"measurement": "FPLR minimum", "setting": "[14]", "result": "0.05 ΔA"}]}
{"molecule": "MDSPIKGPGCCGPGKTDAYS (designed binder, maleimide-PEG2-biotin on the cysteines of the bridge (thioether))", "note": "[clamp peptide C8]", "values": [{"measurement": "LOD (log[ZIKV], copies/mL)", "setting": "[9]", "result": 4.7}, {"measurement": "FPLR C50 (log[ZIKV], copies/mL)", "setting": "[10]", "result": 6.2}, {"measurement": "FPLR minimum", "setting": "[10]", "result": "0.03 ΔA"}]}
{"molecule": "WPWIGTGPGCCGPGKTDAYS (designed binder, maleimide-PEG2-biotin on the cysteines of the bridge (thioether))", "note": "[clamp peptide C4]", "values": [{"measurement": "LOD (log[ZIKV], copies/mL)", "setting": "[11]", "result": 5.7}, {"measurement": "FPLR C50 (log[ZIKV], copies/mL)", "setting": "[12]", "result": 6.3}, {"measurement": "FPLR minimum", "setting": "[12]", "result": "0.02 ΔA"}]}
{"molecule": "WPWIGTGPGCCGPGKRNATP (designed binder, maleimide-PEG2-biotin on the cysteines of the bridge (thioether))", "note": "[clamp peptide C3]", "values": [{"measurement": "signal decrease against the ZIKV signal", "setting": "[6]", "result": 70, "unit": "%"}, {"measurement": "signal decrease against the ZIKV signal", "setting": "[7]", "result": 70, "unit": "%"}, {"measurement": "signal decrease against the ZIKV signal", "setting": "[8]", "result": 70, "unit": "%"}, {"measurement": "LOD (log[ZIKV], copies/mL)", "setting": "[13]", "result": 3.5}, {"measurement": "FPLR C50 (log[ZIKV], copies/mL)", "setting": "[14]", "result": 5.3}, {"measurement": "FPLR minimum", "setting": "[14]", "result": "0.05 ΔA"}]}
{"molecule": "CSWPGQ (maleimide-PEG2-biotin on the N-terminal cysteine)", "note": "[mono-arm peptide P1]", "values": [{"measurement": "LOD (log[ZIKV], copies/mL)", "setting": "[4]", "result": 6.8}]}
{"molecule": "WPHTQGPGCCGPGLRGHA (designed binder, maleimide-PEG2-biotin on the cysteines of the bridge (thioether))", "note": "[clamp peptide C2]", "values": [{"measurement": "LOD (log[ZIKV], copies/mL)", "setting": "[11]", "result": 4.5}, {"measurement": "FPLR C50 (log[ZIKV], copies/mL)", "setting": "[12]", "result": 6.2}, {"measurement": "FPLR minimum", "setting": "[12]", "result": "0.05 ΔA"}]}
{"molecule": "AGRRPGPGCCGPGSWPGQ (designed binder, maleimide-PEG2-biotin on the cysteines of the bridge (thioether))", "note": "[clamp peptide C5]", "values": [{"measurement": "LOD (log[ZIKV], copies/mL)", "setting": "[9]", "result": 5.8}, {"measurement": "FPLR C50 (log[ZIKV], copies/mL)", "setting": "[10]", "result": 6.4}, {"measurement": "FPLR minimum", "setting": "[10]", "result": "0.01 ΔA"}]}
